Assay results taken from patent publication US20150266962A1 (Pfizer, published 2015).

T1: cynomolgus monkey IL-13-Rα2 ECD/TM domain with C-terminal Flag tag, on transfected HEK293 cells (cynomolgus monkey, UniProt Q14627 27-363 (human entry))
T1 construct: also called cyno-IL-13-Rα2; cyno IL-13Rα2; not shown: Flag tag at the C-terminal end
T1 chain: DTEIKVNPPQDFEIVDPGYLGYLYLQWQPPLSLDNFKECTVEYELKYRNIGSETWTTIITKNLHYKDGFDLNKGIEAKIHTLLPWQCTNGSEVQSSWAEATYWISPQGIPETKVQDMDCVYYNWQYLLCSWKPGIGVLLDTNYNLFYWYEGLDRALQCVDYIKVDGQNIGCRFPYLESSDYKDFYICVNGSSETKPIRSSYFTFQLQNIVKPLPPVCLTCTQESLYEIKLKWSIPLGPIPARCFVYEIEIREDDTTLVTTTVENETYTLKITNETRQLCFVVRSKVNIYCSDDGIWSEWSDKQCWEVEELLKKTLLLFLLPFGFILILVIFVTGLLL

T2: recombinant human IL-13 receptor alpha 2 (hIL-13-Rα2) (human, UniProt Q14627 27-343)
T2 construct: Recombinant soluble antigen coated on ELISA plates or used in Biacore; also called rec hIL-13Rα2; rhIL-13Rα2
T2 sequence (looked up): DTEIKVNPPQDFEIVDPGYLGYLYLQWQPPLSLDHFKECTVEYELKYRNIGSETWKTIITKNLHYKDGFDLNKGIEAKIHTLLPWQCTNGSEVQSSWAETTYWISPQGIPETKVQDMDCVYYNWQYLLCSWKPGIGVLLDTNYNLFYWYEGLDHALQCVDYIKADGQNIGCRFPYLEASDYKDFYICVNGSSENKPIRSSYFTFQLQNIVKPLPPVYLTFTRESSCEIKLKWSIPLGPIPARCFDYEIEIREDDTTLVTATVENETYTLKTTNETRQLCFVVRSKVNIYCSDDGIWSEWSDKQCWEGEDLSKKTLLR

T3: recombinant human IL-13 receptor alpha 1 (hIL-13Rα1) (human, UniProt P78552 22-343)
T3 construct: also called hIL-13Ra1
T3 sequence (looked up): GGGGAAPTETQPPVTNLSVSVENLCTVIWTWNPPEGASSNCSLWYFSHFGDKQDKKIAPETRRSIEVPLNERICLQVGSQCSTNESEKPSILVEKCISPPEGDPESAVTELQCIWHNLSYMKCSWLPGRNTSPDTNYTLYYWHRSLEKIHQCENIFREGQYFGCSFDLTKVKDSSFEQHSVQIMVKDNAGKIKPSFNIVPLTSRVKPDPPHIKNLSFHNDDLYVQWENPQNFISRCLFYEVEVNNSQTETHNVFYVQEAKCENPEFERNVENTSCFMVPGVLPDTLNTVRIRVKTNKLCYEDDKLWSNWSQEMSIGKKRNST


Key:
[1] = molecular target: T1, cynomolgus monkey IL-13-Rα2 ECD/TM …; assay: FACS on HEK293 cells transfected with cyno-IL-13-Rα2 (given as ED50)
Method: The ECD/TM domain of cyno IL-13-Rα2 fused with Flag tag at the C-terminal end was cloned into the pSMED2 expression vector. HEK293 suspension cells were transiently transfected with cyno-IL-13-Rα2 containing plasmid and pSMED2 vector (as a mock transfection). The cells were harvested 72 hours later and subjected to FACS analysis. 4 antibodies including ch07, ch08, hu08v1.0/1.0 and hu08v1.1/1.1 were tested. The binding on the cell surface cyno-IL-13-Rα2 was detected with R-Phycoerythrin-labeled goat anti-human or mouse IgG.

[2] = molecular target: T2, recombinant human IL-13 receptor alpha …; assay: direct ELISA on recombinant hIL-13-Rα2 (given as ED50)
Method: (§1) Chimeric antibodies 07 and 08 (ch07 and ch08) were constructed having murine heavy chain and light chain variable region sequences with human IgG1 heavy chain constant regions and human kappa light chain constant regions using methods known in the art. To assess the binding activity and specificity of ch07 and ch08, a standard direct ELISA protocol was performed utilizing recombinant hIL-13-Rα2 and hIL-13Ra1, receptors for IL-13 cytokine. The binding was detected by horseradish peroxidase (HRP) conjugated goat anti-human IgGKappa.

[3] = molecular target: T2, recombinant human IL-13 receptor alpha …; assay: SPR Biacore, human Fab Capture Kit, 1:1 Langmuir model, pH 7.4
Method: (§2) To assess the binding kinetics of the ch07 and ch08 antibodies, SPR (Surface Plasmon Resonance) experiments were conducted on a Biacore® T100 or T200 instrument using a Biacore® human Fab Capture Kit (GE Healthcare). All data was analyzed using the Biacore® T100 evaluation software version 2.0 with a 1:1 Langmuir binding model.

[4] = molecular target: T2, recombinant human IL-13 receptor alpha …; assay: SPR Biacore, human Fab Capture Kit, 1:1 Langmuir model, pH 6.0
Method: as §2

[5] = molecular target: T2, recombinant human IL-13 receptor alpha …; assay: direct ELISA on coated recombinant hIL-13-Rα2
Method: Humanized hu08 binding to recombinant hIL-13-Rα2 was evaluated by a standard direct ELISA. Recombinant hIL-13-Rα2 was coated onto a 96-well plate. Serially diluted chimeric antibodies or humanized antibodies in combinations of heavy and light chains of versions 1.0 and 1.1 e.g. hu08 v1.0 HC/1.0 LC, hu08 v1.0 HC/v1.1 LC, hu08 v1.1 HC/v1.0 LC, and hu08 v1.1 HC/v1.1 LC, were added to the plate and incubated at room temperature for 1-2 hours. The binding was detected by HRP conjugated goat anti-human Ig Kappa.

[6] = molecular target: T3, recombinant human IL-13 receptor alpha …; assay: direct ELISA on plate-coated recombinant hIL-13Rα1, detected with HRP goat anti-human Ig kappa
Method: as §1

[7] = molecular target: T2, recombinant human IL-13 receptor alpha …; assay: competition ELISA on plate (recombinant IL-13-Rα2), competitor biotinylated ch07
[8] = molecular target: T2, recombinant human IL-13 receptor alpha …; assay: standard ELISA on hIL-13-Rα2 (given as ED50)
[9] = molecular target: T2, recombinant human IL-13 receptor alpha …; assay: direct ELISA on rhIL-13Rα2 (given as ED50)

Row | EC50 [1] [nM] | EC50 [2] [nM] | Kd [3] [nM] | koff [3] [s⁻¹] | kon [3] [M⁻¹ s⁻¹] | Kd [4] [nM] | koff [4] [s⁻¹] | kon [4] [M⁻¹ s⁻¹] | EC50 [5] [nM] | binding result [6] | IC50 [7] [nM] | EC50 [8] [nM] | EC50 [9] [nM] | Binder
1 | 1.81 | 0.076 | 0.964 | 0.000416 | 432000 | 5.36 | 0.000381 | 71200 | 0.152 | no binding (tested: about 7 nM) |  |  |  | chimeric antibody ch08 (antibody, human IgG1, V domains shown, also called ch08Hc + Lc; chimeric antibody 08) VH: EVQLVESGGDLVRPGGSLQLSCAASGFTFSRNGMSWVRQTPDRRLEWVATVSSGGSYIYYADSVKGRFTISRDNARNTLYLQMSSLKSEDTAMYYCARQGTTALATRFFDVWGAGTTVTVSS VL: DIVMTQSHKFISTSVGDRVSITCKASQDVGTAVAWYQQIPGQSPKLLIYSASYRSTGIPDRFTGSGSGTDFSFIISSVQAEDLALYYCQHHYSAPWTFGGGTTLDIK
2 | 1.49 | 0.15 | 0.648 | 0.000234 | 361000 | 5.24 | 0.000337 | 64300 |  | no binding (tested: about 7 nM) | 2.21 | 0.1 | 0.217 | chimeric antibody ch07 (antibody, human IgG1, V domains shown, also called chimeric antibody 07; biotin-ch07 (biotinylated form)) VH: QVQLKESGPGLVAPSQSLSINCTVSGFSLTKYGVHWIRQSPGKGLEWLGVKWAGGSTDYNSALMSRLTISKDNNKSQVFLKMNSLQSDDSAMYYCARDHRDAMDYWGQGTSVTVSS VL: QVVLTQSPAIMSASPGERVTMTCTASLSVSSTYLHWYHQKPGSSPKLWIYSTSNLASGVPARFSGSGSGTSYSLTISSMEAEDAATYYCHQYHRSPLTFGSGTKLELK
